This note sets out measurements from paper PMC11615322 (Nature Communications, 2024).

In the test the target is GST-Keap1 (human, UniProt Q14145 1-624). Kind of test: pull-down.
Sequence of GST-Keap1 (Q14145 whole entry): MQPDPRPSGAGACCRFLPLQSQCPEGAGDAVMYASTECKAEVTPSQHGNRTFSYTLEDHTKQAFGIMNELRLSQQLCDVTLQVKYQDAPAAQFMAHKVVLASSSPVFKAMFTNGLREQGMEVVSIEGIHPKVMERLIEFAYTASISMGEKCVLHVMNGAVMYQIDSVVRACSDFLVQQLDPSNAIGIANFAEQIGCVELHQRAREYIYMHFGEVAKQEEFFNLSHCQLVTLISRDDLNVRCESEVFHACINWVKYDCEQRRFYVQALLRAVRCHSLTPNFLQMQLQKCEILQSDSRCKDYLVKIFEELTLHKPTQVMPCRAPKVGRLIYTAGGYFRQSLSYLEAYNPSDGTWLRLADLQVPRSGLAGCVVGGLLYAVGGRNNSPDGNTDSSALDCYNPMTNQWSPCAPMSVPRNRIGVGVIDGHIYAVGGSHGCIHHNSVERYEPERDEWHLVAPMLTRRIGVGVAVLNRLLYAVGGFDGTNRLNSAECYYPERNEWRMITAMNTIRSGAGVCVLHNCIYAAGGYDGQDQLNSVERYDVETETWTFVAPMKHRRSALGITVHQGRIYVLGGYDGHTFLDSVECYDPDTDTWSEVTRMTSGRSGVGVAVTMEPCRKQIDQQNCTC

B1: His-SRX (natural protein)
chain: not shown
As for B1, the binding result is recorded as “binds”.
